Molecular target: the molecule itself
Assay: crystal structure; wt hSTING (140-379) co-crystallised with CDN 5f, 5k, 5l or 5m; sitting drop vapor diffusion, 18 °C; chains A/B with one ligand molecule

B1: human wild-type STING truncated to residues 140–379 (domain or fragment, UniProt Q86WV6 140-379, looked up)
chain: APAEISAVCEKGNFNVAHGLAWSYYIGYLRLILPELQARIRTYNQHYNNLLRGAVSQRLYILLPLDCGVPDNLSMADPNIRFLDKLPQQTGDHAGIKDRVYSNSIYELLENGQRAGTCVLEYATPLQTLFAMSQYSQAGFSREDRLEQAKLFCRTLEDILADAPESQNNCRLIAYQEPADDSSFSLSQEVLRHLRQEEKEEVTVGSLKTSAVPSTSTMSQEPELLISGMEKPLPLRTDFS
notes: stimulator of interferon genes (STING), human, wild-type allele, UniProt Q86WV6, residues 140-379; Each crystal also holds one cyclic dinucleotide ligand (5f, 5k, 5l or 5m) in the site between the two chains; also called wt hSTING; stimulator of interferon genes; source: E. coli BL21 (DE3), purified (Ni-NTA, Ulp1 protease digestion, SEC, HiTrap Capto S)
B1: binds.

Reference: PMC9620234, “Design, Synthesis, and Biochemical and Biological Evaluation of Novel 7-Deazapurine Cyclic Dinucleotide Analogues as STING Receptor Agonists” (Journal of Medicinal Chemistry, 2022)
